Test results published in the supplement of paper PMC9170038.

These sequences were tested on K4 kissing-loop RNA reporter (assay: apparent KD of K4 kissing-loop reporter; higher = weaker reporter binding). Details: Eterna round: R107; input ligand: FMN 200 uM.
Procedure: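 RNA-MaP round R107: designed RNA switches with theophylline, tryptophan, arginine or FMN aptamers are transcribed on-chip within common flanks. They are titrated with a labelled K4 kissing-loop RNA reporter in RNA-MaP buffer (100 mM Tris pH 7.5, 80 mM KCl, 4 mM MgCl2), without ligand or with the indicated ligand. Median apparent KD per design.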
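Also: bound reporter read as fluorescence of individual clusters on recovered sequencing chips by microscopy, with normalized cluster intensities fitted with a binding model.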

| Sequence | apparent KD of K4 kissing-loop reporter [µM] |
| --- | --- |
| GUGCGGCUAGUGAUGUUGGUUGUGUGGGAAGGAGCGCAGAUUCAUGCAGGUAGGUCGCCCACACCUCUGAAAGGAGGCUAAUUCA [KL-SSArg-A16] | 0.453 |
| GAUUCUGUUCGAAAGAACGGAAUCACGGAAGGAGCGAGAGAAAUCUCAGGUAGGUCGCCGAAUUUUAGAUAGUGAUGUUAUCAUU [Arginine A K4 1] | 0.82 |
| AGAACUGUCUGAGAUACCAGCUAAGGAGUGAUGUUCCUAAGUCCACGAAAGUGGACUCAUAGCCCUUGGCAGCUCAGACAGUUCA [#24 K4 Theophylline B Same State] | 1.15 |
| UGUGUUUACCUGACUCAGUGAUGUUGAGAAGGAGCGUGCUAAAGCACAGGUAGGUCGCUCAACCUAAAUUCAGGUGAGCACUAAA | 0.35 |
| AGAGUACGAAAGUACUCCUCUACACACUGACGAGGACCGGUACGGCCGCCACUCGAGUUGAGUGAUGUUCGACAGUGUGUAGAGA [Omei KL Tryp A SS C v1] | 0.12 |
| GGGAAGAAGGCGGCCGCCACUGCAGAAGAGACAGAGAGGGAAGAAGAGGAGUGAUGUUCCAAGAACAGGACCGGGCCAAGAAGGG [whbob_SS_Tryp_B_t29] | 0.598 |
| CCAUCGCUAUUCGAUACCAGUCUACGUAGGAAACUACGUCUGCAAAGGAGUGAUGUUCCAGACCCUUGGCAGCGAAUAGUGAUGG [Theophylline B K4 5] | 0.969 |
| AAUGCGCAGGGAAGGAGCGCCGUCCAGUGAUGUUGGAGUUAAAUACCAGUGAUGUUGGUUAGGCAGGUAGGUCGCCCUAAAGCGC [Exclusion Arginine B GF 1] | 0.118 |
| GGAGUUACCUGGGAUACCAGUCGGAGGCCCAGAGCUCGGAGUGAUGUUCUGGGAUGUUUCGGCCCUUGGCAGCUCUGGGUCUCCG [#2 Exclusion - Theophylline B Attempt #4 (HarryS)] | 0.822 |
| UGAUACCAGACGGCCGCCACUGGGACCGGGAGUGAUGUUCCAAAUAAAAGAAGCUCGGCCGCCACUAGGACCGGGUCUGGUAUCU [TrypBX 21 #DoubleAptamer #SwitchBubble] | 0.395 |
| UGAUAGGACAGAAGGAGCGGAAGUGAUGUUUCCAAAUGGAUAAGGUGUCAAAAGACACCCUUCCAGGUAGGUCGCUGUCCUAUCU [ArgBX 14 #Palindromic #SwitchBubble #StaticStem] | 0.111 |
| GCAGUGAUGUUGCGAAUCGGCCAUGAUGCAGAGGAUAUCGUGCCUUCGAGAAGGUUGUAUAGAGGAUACGAUACUAUUAAUGACG [Same State FMN A GF 6] | 0.395 |
| AGAGUGAUGUUUUUUUGAAGUGAGUAAAGUCGAGGACCGGUACGGCCGCCACUCGAGUGAUGUUAGUGAUGUUGAUGUAGUGAUG [xxzmullin] | 0.11 |
| AAACUUGCAGUGAUGUUGCAAGUAGGUGAUACCAGCAUCGAAAGAUGCCCUUGGCAGCACCAACACUGCAAGUAAGUAUCACCAA [(H1)-(H2)-(T1)-(T2)-(H)'-(T)'_Design1] | 0.116 |
| UACUAUAGUGAUGUUAUAGAUAAACCAGAUACCAGUGUGACAUAACACCCUUGGCAGCUGAUAAGGGAACAUAUGAAAACAUAUG [AstroSSTHeAED5.17] | 0.146 |
| UUGAGCCGGACCGAAGUCCGGCUCUGCGAGCGAGGACCGGUACGGCCGCCACUCGGUGCAGUGAUGUUGCAUGGCCGCAAGGCCG [#2 Exclusion - Tryptophan A Attempt #8 (HarryS)] | 0.424 |

| Sequence | apparent KD of K4 kissing-loop reporter [µM] |
| --- | --- |
| AAAGAGUCACUCGAAGCUAUCGAAGAUAGGCGAGGACCGGUACGGCCGCCACUCGGAGUGAUGUUCCGAAGACUGUAAAAUAAAA [MatMod 12 - Jieux - Exclusion - Tryptophan A] | 0.208 |
| UGGAGUUGACGAAAAGUCAACUCCUGAGAUACCAGUGACGAAAGUCACCCUUGGCAGCUCACUGGCAGUGAUGUUGCACGAUAAA [KL-SSTheo-A1] | 0.123 |
| UCACGAGUGAUGUUCGUCGCAAUCACCGAAGGAGCGGGCGAAAGCCCAGGUAGGUCGCGGUAGAAUAAUGAUUUUAUUCGAUUGC [Same State Arginine A GF 26] | 0.786 |
| UCUGGUAUAUCUGAUACCAGAGUAUAGUAUCAAUUGCAUAUGGAGUGAUGUUCCAUACAACUCCCUUGGCAGCAGAUCUAUCUCU [Same State Theophylline B GF 24] | 0.219 |
| GUGCGCGGUGCGGCCGCCACUCGGAUGCGAGUGAUGUUCGCGGGACGGACGCAAGUCCGUCAUUCGAGGACCGGGCAUGGCUGCA [#2 Same State - Tryptophan B Attempt #6 (HarryS)] | 0.197 |
| GUGCGCGCGGCGGCCGCCACUCGCAUGAGAGUGAUGUUCUCACCGUGACCGUAAGGUCGCGGUGUGAGGACCGGGCCGGGCUGCG [#2 Same State - Tryptophan B Attempt #24 (HarryS)] | 0.181 |
| AAACCCAGUGAUGUUGGGAAUCAGUUGAGGGAGGAUAUUGGUAAUACAAGAAGGCCCGGCUGCGGGUGAUGUUCGCAUUAGGGCC [Exclusion FMN A GF17] | 0.16 |
| UGAUUGCCAGUGAUGUUGGCAGUUUCUGAAGGAGCGCGUGAAAACGCAGGUAGGUCGCAGAUUAGUGCCAAUUGAUCGAAAGAUC [KL-XArg-A4] | 0.208 |
| UUCCACCGAGAAGGAUAUUAUGCUGGACUUGUUUAAGUGUUAAAUAGUGAUGUUAUUUGAUCGGAAUAAGAAGGUCUCAAGUUGA [theeternabot_sameState_KL_FMN_B_44] | 0.155 |
| UUGUUUGGUUGAGAGGUUGGGCGAGAUGAUACCAGUAGAGAAGAGUACCCUUGGCAGCAUAGGAAAGAUAUAGUGAUGUUGUAUA [SSTheophA.Q] | 0.354 |
| AAAUGCUUGUAUUUGAACAAUUCCUUUAGGGAGGAUAUUGGUAAUACAAGAAGGCCCUGAUGGGAGUGAUGUUCCCAUAACGCGG [Exclusion FMN A GF16] | 0.114 |
| AAUAAAAGAUGUUUAGGAAAGCAAAUGGAAGGAGCGUGCGAAAGCACAGGUAGGUCGCCAGUGAUGUUGGCACCUGAGCAUCAAA [#SwitchBubble 18 #K4Late] | 0.251 |
| AAUUGGGACGAAGGAUAUUGUCGGCCAUGUACGAGGUCCGGAUGUCAUGACUGUUAGUGAUGUUAACAAGAAGGUCGAGGGAGAC [theeternabot_exclusion_KL_FMN_B_25] | 0.087 |
| CUGAGCCUGACGUAAGUCAGGCUCUGCGAGCGAGGACCGGUACGGCCGCCACUCGGUGCAGUGAUGUUGCAUGGCCGCAAGGCCG [#2 Exclusion - Tryptophan A Attempt #19 (HarryS)] | 0.293 |
| AUCAUUGAGUGAUGUUCAAUGGGUUUUCCCAAGGAUAUUCGGAGCUGAAGAAGGUGGCCCUCGAUAUCAGUAUCAACCUGAAAGC [theeternabot_exclusion_KL_FMN_A_11] | 0.36 |

Same assay, conditions: Eterna round: R107; input ligand: arginine 13.2 mM

| Sequence | apparent KD of K4 kissing-loop reporter [µM] |
| --- | --- |
| GUGCGGCUAGUGAUGUUGGUUGUGUGGGAAGGAGCGCAGAUUCAUGCAGGUAGGUCGCCCACACCUCUGAAAGGAGGCUAAUUCA [KL-SSArg-A16] | 0.3 |
| GAUUCUGUUCGAAAGAACGGAAUCACGGAAGGAGCGAGAGAAAUCUCAGGUAGGUCGCCGAAUUUUAGAUAGUGAUGUUAUCAUU [Arginine A K4 1] | 0.724 |
| AGAACUGUCUGAGAUACCAGCUAAGGAGUGAUGUUCCUAAGUCCACGAAAGUGGACUCAUAGCCCUUGGCAGCUCAGACAGUUCA [#24 K4 Theophylline B Same State] | 0.675 |
| UGUGUUUACCUGACUCAGUGAUGUUGAGAAGGAGCGUGCUAAAGCACAGGUAGGUCGCUCAACCUAAAUUCAGGUGAGCACUAAA | 0.258 |
| AGAGUACGAAAGUACUCCUCUACACACUGACGAGGACCGGUACGGCCGCCACUCGAGUUGAGUGAUGUUCGACAGUGUGUAGAGA [Omei KL Tryp A SS C v1] | 0.0223 |
| GGGAAGAAGGCGGCCGCCACUGCAGAAGAGACAGAGAGGGAAGAAGAGGAGUGAUGUUCCAAGAACAGGACCGGGCCAAGAAGGG [whbob_SS_Tryp_B_t29] | 0.137 |
| CCAUCGCUAUUCGAUACCAGUCUACGUAGGAAACUACGUCUGCAAAGGAGUGAUGUUCCAGACCCUUGGCAGCGAAUAGUGAUGG [Theophylline B K4 5] | 0.689 |
